Fewer inactive variants are shown than the library holds.
B1: TPR 5TU (parent)
chain: GGAUCUUCUCGAUCUAACAAAAAAGACAAAUCUGCCACAAAGCUUGAGAGCAUCUUCGGAUGCAGAGGCGGCAGCCUUCGGUGGCGCGAUAGCGCCAACGUUCUCAACUAUGACACGCAAAACGCGUGCUCCGUUGAAUGGAGUUUAUCAUG

Variants of: B1
Test: polymerase ribozyme fitness, log enrichment relative to wild type (log ratio); higher = more active; in vitro selection for triplet polymerase activity
In short: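 Mutant libraries for each subunit of a heterodimeric triplet polymerase ribozyme were made by PCR and then transcribed. Each library underwent one round of in vitro selection in triplicate: annealing with a biotinylated primer, the partner subunit and triplets, frozen incubation at −7 °C, gel excision of extended constructs, streptavidin-bead capture and RT-PCR. Input and output libraries were Illumina-sequenced, and only genotypes with ≥10 input reads and ≥1 read per output were kept. Fitness is the logarithm, base 2, of genotype enrichment over wild-type enrichment, computed from inverse-variance-weighted replicate averages.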
For C5U C10G C35U C75G U102G A107U C118A, the “polymerase ribozyme fitness (log ratio)” value was ≤ -4.2. In the case of U6A A20G U56A G88U U102A C103G C132A U146G, the “polymerase ribozyme fitness (log ratio)” value is reported as ≤ -4.2. With C5G C38G G68C U135A G141A the “polymerase ribozyme fitness (log ratio)” value was ≤ -4.2. For C5A C35A U55A A91G G100U G126A A147G, the “polymerase ribozyme fitness (log ratio)” value was ≤ -4.2. In the case of U4G C75G A91U G92A U101G C125U, the “polymerase ribozyme fitness (log ratio)” value is reported as ≤ -4.2. In the case of U4G A39G A142G, the “polymerase ribozyme fitness (log ratio)” value is reported as -3.9. For U4C A19U G50C C76U U144G, the “polymerase ribozyme fitness (log ratio)” value was ≤ -4.2. With C5G G50U G81C G92C G143A the “polymerase ribozyme fitness (log ratio)” value was -2.74. In the case of U4C G25U U61G G86U C93U G133C, the “polymerase ribozyme fitness (log ratio)” value is reported as ≤ -4.2. For C5G G67U G70C G86A C132G, the “polymerase ribozyme fitness (log ratio)” value was ≤ -4.2. With U4C C5G U55A C75A G88C G133U the “polymerase ribozyme fitness (log ratio)” value was -4.17. With C5U C105U A138U the “polymerase ribozyme fitness (log ratio)” value was ≤ -4.2. With U4G C35A C79A G94A U148G the “polymerase ribozyme fitness (log ratio)” value was ≤ -4.2. With C5G C99A the “polymerase ribozyme fitness (log ratio)” value was -0.989. For C5A G92C, the “polymerase ribozyme fitness (log ratio)” value was -1.76. For C5U A30G A52U C76G G94A C118U U148A, the “polymerase ribozyme fitness (log ratio)” value was ≤ -4.2. With U4A U6G A22U U31G C35U U56A G68C C95U C125G U144C the “polymerase ribozyme fitness (log ratio)” value was ≤ -4.2. With C5U A23G C32A C57G G59A C87G C95A U134C the “polymerase ribozyme fitness (log ratio)” value was ≤ -4.2. For C5A C85U A97U G143A, the “polymerase ribozyme fitness (log ratio)” value was -1.87. For C5G A41C U55A G58A A60G, the “polymerase ribozyme fitness (log ratio)” value was -1.54. For U4G U15G A30G A41U G46U C69G C76U C93G G143C, the “polymerase ribozyme fitness (log ratio)” value was ≤ -4.2. In the case of C5A A17U G83A U146G, the “polymerase ribozyme fitness (log ratio)” value is reported as -0.599. For U4A G94A, the “polymerase ribozyme fitness (log ratio)” value was -0.663. For C5A C93G, the “polymerase ribozyme fitness (log ratio)” value was -2.32. For C5A G11C C32G G92U C99A C125G G136U G141U, the “polymerase ribozyme fitness (log ratio)” value was ≤ -4.2. For C5A U6G U82C C95G, the “polymerase ribozyme fitness (log ratio)” value was -2.28. For U4A A16G A37U A91G G124U, the “polymerase ribozyme fitness (log ratio)” value was ≤ -4.2. For U4A G92A G141A, the “polymerase ribozyme fitness (log ratio)” value was -3.96. For C5U U33A C38U C57G C93U A98U, the “polymerase ribozyme fitness (log ratio)” value was ≤ -4.2. For C5G G48C U77A C85A G100A C103G C125A, the “polymerase ribozyme fitness (log ratio)” value was ≤ -4.2. With U4G G11C A40U G50C G83U the “polymerase ribozyme fitness (log ratio)” value was ≤ -4.2. For U6A G83C A89U G136U A137G, the “polymerase ribozyme fitness (log ratio)” value was -3.78. With U6A C54A C93G the “polymerase ribozyme fitness (log ratio)” value was ≤ -4.2. For U6A A19C A24U A28G G141C G152A, the “polymerase ribozyme fitness (log ratio)” value was -3.96. For U4C A60U G74A C93U A106U A107U A150C, the “polymerase ribozyme fitness (log ratio)” value was ≤ -4.2. For C5A C99U, the “polymerase ribozyme fitness (log ratio)” value was -0.267. With U4C U7C A17U A41C G68C U78A C99A C103G the “polymerase ribozyme fitness (log ratio)” value was ≤ -4.2. For U4A C27U G83C G117A A122G U146A, the “polymerase ribozyme fitness (log ratio)” value was -3.14. With C5G A23C G68C G81C G83C U101G C118U G141U the “polymerase ribozyme fitness (log ratio)” value was ≤ -4.2. For C5A G25C A41C C85U A89C A115G C132G U146C U148G, the “polymerase ribozyme fitness (log ratio)” value was ≤ -4.2. With U6A A60C A142G the “polymerase ribozyme fitness (log ratio)” value was -3.03. For C5U U7G A29C A49G G50C C76A C87U C131A G133A U145G, the “polymerase ribozyme fitness (log ratio)” value was ≤ -4.2. For U6A C51A G58C C63G C93G U104G U145A U148C, the “polymerase ribozyme fitness (log ratio)” value was ≤ -4.2. For U4C C85A C95G A115G, the “polymerase ribozyme fitness (log ratio)” value was -3.75. For A3U U55A, the “polymerase ribozyme fitness (log ratio)” value was -0.84. In the case of U4G A12G A22U U53A C72G G100A U111G C125U, the “polymerase ribozyme fitness (log ratio)” value is reported as ≤ -4.2. In the case of C5A U13C C38U A121G U127C, the “polymerase ribozyme fitness (log ratio)” value is reported as -4.07. With C5U A16C G81A U82A G126C the “polymerase ribozyme fitness (log ratio)” value was -0.899. With C5U U56A C57A C85G the “polymerase ribozyme fitness (log ratio)” value was -0.724. For U4A A24U U31G C54U G84A, the “polymerase ribozyme fitness (log ratio)” value was -1.15. For U4A C93A, the “polymerase ribozyme fitness (log ratio)” value was -1.38. For U4C C10A U15G G62C A64U G80A C93A C116A U127G C131U G141U U145A, the “polymerase ribozyme fitness (log ratio)” value was ≤ -4.2. With C5A G94U C95A C123A U135C the “polymerase ribozyme fitness (log ratio)” value was -3.89. In the case of C5G C32U A91G A115G, the “polymerase ribozyme fitness (log ratio)” value is reported as ≤ -4.2. In the case of U6A A29U G81A G92C C114U, the “polymerase ribozyme fitness (log ratio)” value is reported as ≤ -4.2. For C5G U55G C79G C85U U130G, the “polymerase ribozyme fitness (log ratio)” value was ≤ -4.2. With C5A C57G C75U G86A A91C the “polymerase ribozyme fitness (log ratio)” value was -4.01. In the case of C5G C10A G11A A30U A49C C93U G136A, the “polymerase ribozyme fitness (log ratio)” value is reported as ≤ -4.2. For C5A G58A G86U, the “polymerase ribozyme fitness (log ratio)” value was -1.52. With U4C C43U C85U G133A G141U the “polymerase ribozyme fitness (log ratio)” value was ≤ -4.2. In the case of U6A A41C U45A A49G G59U G86A, the “polymerase ribozyme fitness (log ratio)” value is reported as ≤ -4.2. With C5U A20C G59A A60G C69A A98G the “polymerase ribozyme fitness (log ratio)” value was -2.12. With U6A C18A A21U U56G G68A A91U G128C U139A G143A the “polymerase ribozyme fitness (log ratio)” value was ≤ -4.2. For C5A A16U G59U, the “polymerase ribozyme fitness (log ratio)” value was -1.5. In the case of U6A G62A C76A A91U A121U C123A A138C G141U, the “polymerase ribozyme fitness (log ratio)” value is reported as ≤ -4.2. With C5A U44C C76A G84A C131U A150U the “polymerase ribozyme fitness (log ratio)” value was ≤ -4.2. In the case of U6A A19G C38G U61A G94C C103G, the “polymerase ribozyme fitness (log ratio)” value is reported as ≤ -4.2. In the case of C5U A23U A24C G46A C96U A137U, the “polymerase ribozyme fitness (log ratio)” value is reported as ≤ -4.2. For C5A A26C A30U A52C G70A G86C, the “polymerase ribozyme fitness (log ratio)” value was ≤ -4.2. For U6A A106G G117C A147U, the “polymerase ribozyme fitness (log ratio)” value was -0.278. With C5U U6G C14U A20C A26U A37C A66U A120G the “polymerase ribozyme fitness (log ratio)” value was ≤ -4.2. For U6A U44A C57G G70A G80A C85U G126U C131G, the “polymerase ribozyme fitness (log ratio)” value was ≤ -4.2. In the case of U4C C5U A23C A47C C79A C85G U90C G117U G152U, the “polymerase ribozyme fitness (log ratio)” value is reported as ≤ -4.2. In the case of U4A A19C, the “polymerase ribozyme fitness (log ratio)” value is reported as 0.332. In the case of U4A A20C A28C A29G C87A G141U, the “polymerase ribozyme fitness (log ratio)” value is reported as -4.08. For U4A C54A C95A A138C, the “polymerase ribozyme fitness (log ratio)” value was ≤ -4.2. In the case of U4G C38U C93G, the “polymerase ribozyme fitness (log ratio)” value is reported as -2.52. For C5A C10U A41C A49C U139G U151G, the “polymerase ribozyme fitness (log ratio)” value was ≤ -4.2. For U4A G143U, the “polymerase ribozyme fitness (log ratio)” value was -3.47. For U6A A28C U44A U45A A49U C85G U144A, the “polymerase ribozyme fitness (log ratio)” value was ≤ -4.2. In the case of C5G C32U G84U, the “polymerase ribozyme fitness (log ratio)” value is reported as -3.82. With C5U A66G C87U the “polymerase ribozyme fitness (log ratio)” value was ≤ -4.2. With U4C C5A A24U A41G G46C C85U C96G the “polymerase ribozyme fitness (log ratio)” value was -3.3. With U6A G86U the “polymerase ribozyme fitness (log ratio)” value was -1.41.
